± gives the standard deviation of the averaged measurements.
Experiment: terephthalic acid (TPA) released, HPLC; higher = more TPA released; extreme values may be limits of the assay
Settings: 24 h
Method: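 Purified PET hydrolases, 2.5 ug enzyme on 3.5 mg amorphous PET film (aFilm) or crystalline PET powder (cryPow) in 0.5 mL of 50 mM buffer (NaCitrate pH 4.5/5.5, NaPhosphate 6.5/7.5, glycine 8.5/9.5) at 60 or 70 C with shaking for 24 h. Total aromatic product by UV-Vis (260/280 nm, blank-subtracted, normalised per mg enzyme) and individual TPA, MHET, BHET concentrations by UHPLC-DAD at 240 nm; duplicate reactions.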

[1] = PET substrate: aFilm, 60 °C, pH 4.5
[2] = PET substrate: aFilm, 60 °C, pH 5.5
[3] = PET substrate: aFilm, 60 °C, pH 6.5
[4] = PET substrate: aFilm, 60 °C, pH 7.5
[5] = PET substrate: aFilm, 60 °C, pH 8.5
[6] = PET substrate: aFilm, 60 °C, pH 9.5
[7] = PET substrate: aFilm, 70 °C, pH 4.5
[8] = PET substrate: aFilm, 70 °C, pH 5.5
[9] = PET substrate: aFilm, 70 °C, pH 6.5
[10] = PET substrate: aFilm, 70 °C, pH 7.5
[11] = PET substrate: aFilm, 70 °C, pH 8.5
[12] = PET substrate: aFilm, 70 °C, pH 9.5
[13] = PET substrate: cryPow, 60 °C, pH 4.5
[14] = PET substrate: cryPow, 60 °C, pH 5.5
[15] = PET substrate: cryPow, 60 °C, pH 6.5
[16] = PET substrate: cryPow, 60 °C, pH 7.5
[17] = PET substrate: cryPow, 60 °C, pH 8.5
[18] = PET substrate: cryPow, 60 °C, pH 9.5
[19] = PET substrate: cryPow, 70 °C, pH 4.5
[20] = PET substrate: cryPow, 70 °C, pH 5.5
[21] = PET substrate: cryPow, 70 °C, pH 6.5
[22] = PET substrate: cryPow, 70 °C, pH 7.5
[23] = PET substrate: cryPow, 70 °C, pH 8.5
[24] = PET substrate: cryPow, 70 °C, pH 9.5

“QTNPYARGPNPTAASLEASAGPFTVRSFTVSRPSGYGAGTVYYPTNAGGTVGAIAIVPGYTARQSSIKWWGPRLASHGFVVITIDTNSTFDYPSSRSSQQMAALRQVASLNGDSSSPIYGKVDTARMGVMGHSMGGGASLRSAANNPSLKAAIPQAPWDSQTNFSSVTVPTLIFACENDSIAPVNSHALPIYDSMSRNAKQFLEINGGSHSCANSGNSNQALIGKKGVAWMKRFMDNDTRYSTFACENPNSTAVSDFRTANCS [DuraPETase]” gave a terephthalic acid [1] of 0.00462 ± 0.0065 mM, a terephthalic acid [2] of 0 mM and a terephthalic acid [3] of 0 mM. For the same sequence, the terephthalic acid [4] was 0.102 ± 0.0056 mM, the terephthalic acid [5] was 0.0886 ± 0.028 mM and the terephthalic acid [6] was 0.344 ± 0.23 mM. It also gave a terephthalic acid [7] of 0 mM, a terephthalic acid [8] of 0 mM and a terephthalic acid [9] of 0 mM. The terephthalic acid [10] was 0.0128 ± 0.0049 mM, the terephthalic acid [11] was 0.0158 ± 0.0083 mM and the terephthalic acid [12] was 0.0892 ± 0.011 mM. For the same sequence, the terephthalic acid [13] was 0 mM, the terephthalic acid [14] was 0 mM and the terephthalic acid [15] was 0.00832 ± 0.0013 mM. For the same sequence, the terephthalic acid [16] was 0.0835 ± 0.0026 mM, the terephthalic acid [17] was 0.0926 ± 0.0049 mM and the terephthalic acid [18] was 0.384 ± 0.049 mM. For the same sequence, the terephthalic acid [19] was 0 mM, the terephthalic acid [20] was 0 mM and the terephthalic acid [21] was 0 mM. It also gave a terephthalic acid [22] of 0.12 ± 0.03 mM, a terephthalic acid [23] of 0.0557 ± 0.011 mM and a terephthalic acid [24] of 0.0155 ± 0.005 mM.

“SNPYQRGPNPTRSALTADGPFSVATYTVSRLSVSGFGGGVIYYPTGTSLTFGGIAMSPGYTADASSLAWLGRRLASHGFVVLVINTNSRFDGPDSRASQLSAALNYLRTSSPSAVRARLDANRLAVAGHSMGGGGTLRIAEQNPSLKAAVPLTPWHTDKTFNTSVPVLIVGAEADTVAPVSQYAIPFYQNLPSTTPKVYVELCNASHIAPNSDNAAISVYTISWMKLWVDNDTRYRQFLCNVNDPALCDFRTNNRHCQ [LCC-A2]” gave a terephthalic acid [1] of 0.195 ± 0.029 mM, a terephthalic acid [2] of 0.792 ± 0.039 mM and a terephthalic acid [3] of 1.34 ± 0.054 mM. It also gave a terephthalic acid [4] of 5.52 ± 0.61 mM, a terephthalic acid [5] of 0.776 ± 0.27 mM and a terephthalic acid [6] of 2.661 ± 0.012 mM. The terephthalic acid [7] was 0.0095 ± 0.0046 mM, the terephthalic acid [8] was 0.455 ± 0.04 mM and the terephthalic acid [9] was 0.83 ± 0.096 mM. The terephthalic acid [10] was 5.42 ± 0.41 mM, the terephthalic acid [11] was 0.643 ± 0.15 mM and the terephthalic acid [12] was 2.9 ± 0.24 mM. For the same sequence, the terephthalic acid [13] was 0.0633 ± 0.017 mM, the terephthalic acid [14] was 0.132 ± 0.011 mM and the terephthalic acid [15] was 0.232 ± 0.076 mM. The terephthalic acid [16] was 0.39 ± 0.062 mM, the terephthalic acid [17] was 0.174 ± 0.046 mM and the terephthalic acid [18] was 0.789 ± 0.19 mM. It also gave a terephthalic acid [19] of 0.0184 ± 0.0046 mM, a terephthalic acid [20] of 0.0932 ± 0.015 mM and a terephthalic acid [21] of 0.209 ± 0.045 mM. The terephthalic acid [22] was 0.639 ± 0.023 mM, the terephthalic acid [23] was 0.157 ± 0.0095 mM and the terephthalic acid [24] was 0.987 ± 0.046 mM.

Work on “ANPYERGPNPTDALLEARSGPFSVSEENVSRLSASGFGGGTIYYPRENNTYGAVAISPGYTGTEASIAWLGERIASHGFVVITIDTITTLDQPDSRAEQLNAALNHMINRASSTVRSRIDSSRLAVMGHSMGGGGSLRLASQRPDLKAAIPLTPWHLNKNWSSVTVPTLIIGADLDTIAPVATHAKPFYNSLPSSISKAYLELDGATHFAPNIPNKIIGKYSVAWLKRFVDNDTRYTQFLCPGPRDGLFGEVEEYRSTCPF [TfCut2]” yielded a terephthalic acid [1] of 0 mM, a terephthalic acid [2] of 0.0433 ± 0.016 mM and a terephthalic acid [3] of 0.0508 ± 0.0026 mM. It also gave a terephthalic acid [4] of 0.186 ± 0.065 mM, a terephthalic acid [5] of 0.0862 ± 0.0028 mM and a terephthalic acid [6] of 0.454 ± 0.0053 mM. For the same sequence, the terephthalic acid [7] was 0 mM, the terephthalic acid [8] was 0 mM and the terephthalic acid [9] was 0 mM. For the same sequence, the terephthalic acid [10] was 0.00319 ± 0.0045 mM, the terephthalic acid [11] was 0.00941 ± 0.00042 mM and the terephthalic acid [12] was 0.03467 ± 8.1e-05 mM. It also gave a terephthalic acid [13] of 0 mM, a terephthalic acid [14] of 0.0031 ± 0.0044 mM and a terephthalic acid [15] of 0.00386 ± 0.0055 mM. It also gave a terephthalic acid [16] of 0.0408 ± 0.031 mM, a terephthalic acid [17] of 0.0159 ± 0.004 mM and a terephthalic acid [18] of 0.0959 ± 0.083 mM. For the same sequence, the terephthalic acid [19] was 0 mM, the terephthalic acid [20] was 0 mM and the terephthalic acid [21] was 0 mM. For the same sequence, the terephthalic acid [22] was 0 mM, the terephthalic acid [23] was 0 mM and the terephthalic acid [24] was 0.0139 ± 0.0022 mM.

Sequence “QTNPYARGPDPTAASLEASAGPFTVRSFTVSRPSGYGAGTVYYPTNAGGTVGAIAIVPGYTARQSSIKWWGPRLASHGFVVITIDTNSTLDQPESRSSQQMAALEQVASLNGTSSSPIYGKVDTARMGVMGWSMGGGGSLISACNNPSLKAAVVQAPWHSSTNFSCVTVPTLIFACENDSIAPVNSSALPIYDSMSENAKQFLEICGGSHSCANTGNSDQALIGKKGVAWMKRFMDNDTRYSTFACENPNSTRVCDFRTANCS [Z1-PETase]” has a terephthalic acid [1] of 0 mM, a terephthalic acid [2] of 0 mM and a terephthalic acid [3] of 0.227 ± 0.03 mM. For the same sequence, the terephthalic acid [4] was 0.685 ± 0.19 mM, the terephthalic acid [5] was 0.179 ± 0.076 mM and the terephthalic acid [6] was 1.22 ± 0.028 mM. For the same sequence, the terephthalic acid [7] was 0 mM, the terephthalic acid [8] was 0 mM and the terephthalic acid [9] was 0 mM. The terephthalic acid [10] was 0.0109 ± 0.015 mM, the terephthalic acid [11] was 0.00307 ± 0.0043 mM and the terephthalic acid [12] was 0.0495 ± 0.037 mM. The terephthalic acid [13] was 0 mM, the terephthalic acid [14] was 0.0408 ± 0.032 mM and the terephthalic acid [15] was 0.114 ± 0.018 mM. The terephthalic acid [16] was 0.236 ± 0.015 mM, the terephthalic acid [17] was 0.225 ± 0.023 mM and the terephthalic acid [18] was 0.72 ± 0.023 mM. The terephthalic acid [19] was 0 mM, the terephthalic acid [20] was 0 mM and the terephthalic acid [21] was 0.0337 ± 0.0038 mM. For the same sequence, the terephthalic acid [22] was 0.17 ± 0.03 mM, the terephthalic acid [23] was 0.0464 ± 0.0031 mM and the terephthalic acid [24] was 0.367 ± 0.13 mM.

Sequence “SNPYQRGPNPTRSALTATGPFSVATYTVSRLLVSGFGGGVIYYPTGTSLTFGGIAMSPGYTADASSLAWLGRRLASHGFVVLVINTNSRFDGPDSRARQLSAALNYLRTSSPSAVRARLDANRLAVAGHSMGGGGTLRIAEQNPSLKAAVPLTPWHPDKTFNTSVPVLIVGAQADTVAPVSQHAIPFYQNLPSTTPKVYVELCNASHIAPNSPNAAISVYTISWMKLWVDNDTRYRQFLCNVNDPALCDFRTNNRHCQ [LCC-ICCG I6M]” has a terephthalic acid [1] of 0.104 ± 0.016 mM, a terephthalic acid [2] of 0.39 ± 0.21 mM and a terephthalic acid [3] of 0.499 ± 0.059 mM. The terephthalic acid [4] was 2.85 ± 0.34 mM, the terephthalic acid [5] was 0.541 ± 0.045 mM and the terephthalic acid [6] was 1.37 ± 0.38 mM. For the same sequence, the terephthalic acid [7] was 0 mM, the terephthalic acid [8] was 0.275 ± 0.045 mM and the terephthalic acid [9] was 0.246 ± 0.094 mM. The terephthalic acid [10] was 1.37 ± 0.13 mM, the terephthalic acid [11] was 0.209 ± 0.016 mM and the terephthalic acid [12] was 1.33 ± 0.17 mM. For the same sequence, the terephthalic acid [13] was 0.0328 ± 0.0013 mM, the terephthalic acid [14] was 0.102 ± 0.015 mM and the terephthalic acid [15] was 0.105 ± 0.0069 mM. It also gave a terephthalic acid [16] of 0.116 ± 0.015 mM, a terephthalic acid [17] of 0.0874 ± 0.032 mM and a terephthalic acid [18] of 0.263 ± 0.12 mM. It also gave a terephthalic acid [19] of 0 mM, a terephthalic acid [20] of 0.0482 ± 0.0048 mM and a terephthalic acid [21] of 0.0691 ± 0.0087 mM. For the same sequence, the terephthalic acid [22] was 0.288 ± 0.082 mM, the terephthalic acid [23] was 0.1 ± 0.051 mM and the terephthalic acid [24] was 0.25 ± 0.023 mM.

“SNPYQRGPNPTRSALTADGPFSVATYTVSRLSVSGFGGGVIYYPTGTSLTFGGIAMSPGYTADASSLAWLGRRLASHGFVVLVINTNSRFDGPDSRASQLSAALNYLRTSSPSAVRARLDANRLAVAGHSMGGGGTLRIAEQNPSLKAAVPLTPWHTDKTFNTSVPVLIVGAEADTVAPVSQHAIPFYQNLPSTTPKVYVELCNASHIAPNSNNAAISVYTISWMKLWVDNDTRYRQFLCNVNDPALCDFRTNNRHCQ [LCC-ICCG]” showed a terephthalic acid [1] of 0.0137 ± 0.0054 mM, a terephthalic acid [2] of 0.309 ± 0.094 mM and a terephthalic acid [3] of 0.78 ± 0.092 mM. It also gave a terephthalic acid [4] of 3.41 ± 0.37 mM, a terephthalic acid [5] of 0.472 ± 0.16 mM and a terephthalic acid [6] of 2.3 ± 0.49 mM. It also gave a terephthalic acid [7] of 0 mM, a terephthalic acid [8] of 0.25 ± 0.092 mM and a terephthalic acid [9] of 0.362 ± 0.054 mM. The terephthalic acid [10] was 2.48 ± 0.41 mM, the terephthalic acid [11] was 0.287 ± 0.15 mM and the terephthalic acid [12] was 1.72 ± 0.14 mM. The terephthalic acid [13] was 0.0129 ± 0.0027 mM, the terephthalic acid [14] was 0.0979 ± 0.017 mM and the terephthalic acid [15] was 0.113 ± 0.024 mM. For the same sequence, the terephthalic acid [16] was 0.308 ± 0.14 mM, the terephthalic acid [17] was 0.121 ± 0.023 mM and the terephthalic acid [18] was 0.516 ± 0.15 mM. For the same sequence, the terephthalic acid [19] was 0 mM, the terephthalic acid [20] was 0.0559 ± 0.019 mM and the terephthalic acid [21] was 0.0977 ± 0.033 mM. For the same sequence, the terephthalic acid [22] was 0.409 ± 0.049 mM, the terephthalic acid [23] was 0.111 ± 0.024 mM and the terephthalic acid [24] was 0.682 ± 0.089 mM.

From the supplement of paper PMC11196671
